# Reference: US20220154296A1, “USE OF ANTI-PD-1 ANTIBODY IN PREPARATION OF MEDICAMENT FOR TREATING SOLID TUMORS” (Shanghai Junshi Biosciences Co., Ltd., priority 2019, published 2022)
# [1] = ESCC patients, 3 mg/kg Q2W, n = 59
# Procedure: The anti-PD-1 antibody dose groups for this study: 3 mg/kg dose group at first. After enrollment, subjects will receive treatment every 2 weeks (Q2W) for a 4-week cycle, until disease progression, onset of intolerable toxicity, withdrawal of consent by the subject, no further benefit at the discretion of the investigator, or death.
# The planned dose was 3 mg/kg, Q2W.
substance,measurement,setting,value
toripalimab: humanized IgG4 anti-PD-1 mAb comprising light and heavy chain amino acid sequences set forth in SEQ ID NOs: 9 and 10 (WO2014206107),Common TRAE: ALT elevation,59 ESCC patients,11.9%
same,Common TRAE: AST elevation,59 ESCC patients,13.6%
same,Common TRAE: anemia,59 ESCC patients,18.6%
same,Common TRAE: constipation,59 ESCC patients,10.2%
same,Common TRAE: cough,59 ESCC patients,16.9%
same,Common TRAE: fatigue,59 ESCC patients,11.9%
same,Common TRAE: fever,59 ESCC patients,16.9%
same,Common TRAE: hypothyroidism,59 ESCC patients,13.6%
same,Common TRAE: leukopenia,59 ESCC patients,15.3%
same,Common TRAE: loss of appetite,59 ESCC patients,18.6%
same,Common TRAE: low hemoglobin counts,59 ESCC patients,10.2%
same,Common TRAE: nausea,59 ESCC patients,11.9%
same,Common TRAE: total bilirubin increase,59 ESCC patients,10.2%
same,Common TRAE: weight loss,59 ESCC patients,18.6%
same,Grade 3 TRAE: anemia,59 ESCC patients,2 cases
same,Grade 3 TRAE: anorexia,59 ESCC patients,1 case
same,Grade 3 TRAE: dysphagia,59 ESCC patients,1 case
same,Grade 3 TRAE: esophageal stenosis,59 ESCC patients,1 case
same,Grade 3 TRAE: fatigue,59 ESCC patients,1 case
same,Grade 3 TRAE: hydrocardia,59 ESCC patients,1 case
same,Grade 3 TRAE: hypercalcemia,59 ESCC patients,1 case
same,Grade 3 TRAE: hypertension,59 ESCC patients,1 case
same,Grade 3 TRAE: hyponatremia,59 ESCC patients,2 cases
same,Grade 3 TRAE: leukopenia,59 ESCC patients,1 case
same,Grade 3 TRAE: neck infection,59 ESCC patients,1 case
same,Grade 3 TRAE: upper respiratory infection,59 ESCC patients,1 case
same,Grade 4 TRAE: hyperuricemia,59 ESCC patients,1 case
same,Grade 4 TRAE: paraplegia,59 ESCC patients,1 case
same,Patients permanently discontinued due to TRAE,59 ESCC patients,23.7%
same,Patients with Grade 3 and higher TRAEs,59 ESCC patients,32.2%
same,Patients with Grade 4 TRAEs,59 ESCC patients,3.4%
same,Patients with dose discontinuation due to TRAE,59 ESCC patients,10.2%
same,Patients with grade 3 TRAEs,59 ESCC patients,18.6%
same,Safety in ESCC patients (conclusion),59 ESCC patients,controlled safety
same,Treatment-related death: cachexia,59 ESCC patients,1 case
same,Treatment-related death: pneumonia,59 ESCC patients,2 cases
same,Treatment-related death: unknown etiology,59 ESCC patients,3 cases
same,Patients with treatment-related adverse events (TRAEs),"59 ESCC patients, as of Dec. 31, 2018",94.9%
same,Treatment-related deaths,"59 ESCC patients, likely unrelated to the treatment",six
same,"ALT elevation, Level 1",[1],7 (11.9) n (%)
same,"ALT elevation, Level 2",[1],0 n (%)
same,"ALT elevation, Level 3",[1],0 n (%)
same,"ALT elevation, Level 4",[1],0 n (%)
same,"ALT elevation, Level 5",[1],0 n (%)
same,"ALT elevation, Total",[1],7 (11.9) n (%)
same,"AST elevation, Level 1",[1],8 (13.6) n (%)
same,"AST elevation, Level 2",[1],0 n (%)
same,"AST elevation, Level 3",[1],0 n (%)
same,"AST elevation, Level 4",[1],0 n (%)
same,"AST elevation, Level 5",[1],0 n (%)
same,"AST elevation, Total",[1],8 (13.6) n (%)
same,"Anemia, Level 1",[1],6 (10.2) n (%)
same,"Anemia, Level 2",[1],2 (3.4) n (%)
same,"Anemia, Level 3",[1],3 (5.1) n (%)
same,"Anemia, Level 4",[1],0 n (%)
same,"Anemia, Level 5",[1],0 n (%)
same,"Anemia, Total",[1],11 (18.6) n (%)
same,"Constipation, Level 1",[1],5 (8.5) n (%)
same,"Constipation, Level 2",[1],1 (1.7) n (%)
same,"Constipation, Level 3",[1],0 n (%)
same,"Constipation, Level 4",[1],0 n (%)
same,"Constipation, Level 5",[1],0 n (%)
same,"Constipation, Total",[1],6 (10.2) n (%)
same,"Cough, Level 1",[1],6 (10.2) n (%)
same,"Cough, Level 2",[1],4 (6.8) n (%)
same,"Cough, Level 3",[1],0 n (%)
same,"Cough, Level 4",[1],0 n (%)
same,"Cough, Level 5",[1],0 n (%)
same,"Cough, Total",[1],10 (16.9) n (%)
same,"Fatigue, Level 1",[1],6 (10.2) n (%)
same,"Fatigue, Level 2",[1],1 (1.7) n (%)
same,"Fatigue, Level 3",[1],0 n (%)
same,"Fatigue, Level 4",[1],0 n (%)
same,"Fatigue, Level 5",[1],0 n (%)
same,"Fatigue, Total",[1],7 (11.9) n (%)
same,"Fever, Level 1",[1],8 (13.3) n (%)
same,"Fever, Level 2",[1],2 (3.4) n (%)
same,"Fever, Level 3",[1],0 n (%)
same,"Fever, Level 4",[1],0 n (%)
same,"Fever, Level 5",[1],0 n (%)
same,"Fever, Total",[1],10 (16.9) n (%)
same,"Hypothyroidism, Level 1",[1],5 (8.5) n (%)
same,"Hypothyroidism, Level 2",[1],3 (5.1) n (%)
same,"Hypothyroidism, Level 3",[1],0 n (%)
same,"Hypothyroidism, Level 4",[1],0 n (%)
same,"Hypothyroidism, Level 5",[1],0 n (%)
same,"Hypothyroidism, Total",[1],8 (13.6) n (%)
same,"Leukopenia, Level 1",[1],6 (10.2) n (%)
same,"Leukopenia, Level 2",[1],3 (5.1) n (%)
same,"Leukopenia, Level 3",[1],0 n (%)
same,"Leukopenia, Level 4",[1],0 n (%)
same,"Leukopenia, Level 5",[1],0 n (%)
same,"Leukopenia, Total",[1],9 (15.3) n (%)
same,"Loss of appetite, Level 1",[1],6 (10.2) n (%)
same,"Loss of appetite, Level 2",[1],4 (6.8) n (%)
same,"Loss of appetite, Level 3",[1],1 (1.7) n (%)
same,"Loss of appetite, Level 4",[1],0 n (%)
same,"Loss of appetite, Level 5",[1],0 n (%)
same,"Loss of appetite, Total",[1],11 (18.6) n (%)
same,"Low hemoglobin counts, Level 1",[1],3 (5.1) n (%)
same,"Low hemoglobin counts, Level 2",[1],3 (5.1) n (%)
same,"Low hemoglobin counts, Level 3",[1],0 n (%)
same,"Low hemoglobin counts, Level 4",[1],0 n (%)
same,"Low hemoglobin counts, Level 5",[1],0 n (%)
same,"Low hemoglobin counts, Total",[1],6 (10.2) n (%)
same,"Nausea, Level 1",[1],5 (8.5) n (%)
same,"Nausea, Level 2",[1],2 (3.4) n (%)
same,"Nausea, Level 3",[1],0 n (%)
same,"Nausea, Level 4",[1],0 n (%)
same,"Nausea, Level 5",[1],0 n (%)
same,"Nausea, Total",[1],7 (11.9) n (%)
same,"Total bilirubin increase, Level 1",[1],6 (10.2) n (%)
same,"Total bilirubin increase, Level 2",[1],0 n (%)
same,"Total bilirubin increase, Level 3",[1],0 n (%)
same,"Total bilirubin increase, Level 4",[1],0 n (%)
same,"Total bilirubin increase, Level 5",[1],0 n (%)
same,"Total bilirubin increase, Total",[1],6 (10.2) n (%)
same,"Treatment-related adverse events, Level 1",[1],13 (22.0) n (%)
same,"Treatment-related adverse events, Level 2",[1],24 (40.7) n (%)
same,"Treatment-related adverse events, Level 3",[1],11 (18.6) n (%)
same,"Treatment-related adverse events, Level 4",[1],2 (3.4) n (%)
same,"Treatment-related adverse events, Level 5",[1],6 (10.2) n (%)
same,"Treatment-related adverse events, Total",[1],56 (94.9) n (%)
same,"Weight loss, Level 1",[1],8 (13.6) n (%)
same,"Weight loss, Level 2",[1],3 (5.1) n (%)
same,"Weight loss, Level 3",[1],0 n (%)
same,"Weight loss, Level 4",[1],0 n (%)
same,"Weight loss, Level 5",[1],0 n (%)
same,"Weight loss, Total",[1],11 (18.6) n (%)
